Tests used:
kallikrein 2 (KLK2) = kallikrein 2 (KLK2) (UniProt P20151)
[1] = target: recombinant soluble murine proADAM10 (truncated, lacking the signal peptide and the regions C-terminal of the protease domain) (murine); test: SDS-PAGE with western blot + MALDI-TOF; purified recombinant proADAM10; anti-His-tag western blot and MALDI-TOF; a 100-kDa species called the proADAM10 dimer

UniProt P20151, sequence (P20151 19-261): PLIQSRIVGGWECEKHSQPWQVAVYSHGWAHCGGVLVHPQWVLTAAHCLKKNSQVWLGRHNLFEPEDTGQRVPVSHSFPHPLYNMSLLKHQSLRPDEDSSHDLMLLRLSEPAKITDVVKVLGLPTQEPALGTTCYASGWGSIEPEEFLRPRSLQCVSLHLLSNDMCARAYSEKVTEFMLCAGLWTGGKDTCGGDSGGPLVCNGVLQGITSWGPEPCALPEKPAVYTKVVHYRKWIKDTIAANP

KLK2 proteolytic activity (Z-Pyr-G-R-AMC) after incubation with meprin β-cleaved LEKTI 9–15, relative to uncleaved LEKTI 9–15 (kallikrein 2 (KLK2)) | stoichiometry N [1] | Substance
20% | – | meprin β-cleaved LEKTI 9–14 (domain or fragment)
– | 2 | recombinant soluble murine proADAM10 (truncated, lacking the signal peptide and the regions C-terminal of the protease domain) (domain or fragment)
